Experimental data: patent US20250269018A1, “COMBINED CANCER THERAPY WITH AN EPITHELIAL CELL ADHESION MOLECULE (EPCAM) INHIBITOR AND A HEPATOCYTE GROWTH FACTOR RECEPTOR (HGFR) INHIBITOR” (ACADEMIA SINICA, priority 2021, published 2025)

T1: EpCAM wild-type (expressed in HEK293T cells, FIG. 8D-8G) (human, UniProt P16422 24-314)
T1 sequence: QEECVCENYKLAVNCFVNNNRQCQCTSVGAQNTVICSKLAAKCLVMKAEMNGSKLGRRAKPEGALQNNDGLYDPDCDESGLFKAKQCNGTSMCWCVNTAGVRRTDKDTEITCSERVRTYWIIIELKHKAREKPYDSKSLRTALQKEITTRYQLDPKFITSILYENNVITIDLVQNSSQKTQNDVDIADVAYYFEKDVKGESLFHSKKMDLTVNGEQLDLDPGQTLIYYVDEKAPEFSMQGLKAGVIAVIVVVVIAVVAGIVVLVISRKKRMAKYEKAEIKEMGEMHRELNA

T2: EpEX-His (Homo sapiens, UniProt P16422)
T2 construct: the soluble extracellular domain of EpCAM (EpEX); His; made in house; host or cells: Expi293
T2 sequence (P16422 24-265 limits assumed): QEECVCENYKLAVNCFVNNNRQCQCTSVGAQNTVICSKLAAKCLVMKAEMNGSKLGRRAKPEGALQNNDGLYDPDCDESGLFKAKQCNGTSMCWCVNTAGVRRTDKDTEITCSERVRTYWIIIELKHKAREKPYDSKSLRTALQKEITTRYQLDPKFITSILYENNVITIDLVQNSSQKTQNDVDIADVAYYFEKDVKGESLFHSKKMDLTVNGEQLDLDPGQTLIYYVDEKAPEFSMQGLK

B1: EpCAMΔEGFI+II-V5 (other)
chain: QEESKLAAKSERVRTYWIIIELKHKAREKPYDSKSLRTALQKEITTRYQLDPKFITSILYENNVITIDLVQNSSQKTQNDVDIADVAYYFEKDVKGESLFHSKKMDLTVNGEQLDLDPGQTLIYYVDEKAPEFSMQGLKAGVIAVIVVVVIAVVAGIVVLVISRKKRMAKYEKAEIKEMGEMHRELNA
notes: also called both domain-deleted mutants; not shown: V5 tag
B2: EpEX-Fc (Fc fusion)
chain: T2 sequence (P16422 24-265 limits assumed)
notes: also called recombinant EpEX-Fc; not shown: Fc
B3: EpEX-His (extracellular domain of EpCAM, His-tagged) (ligand)
chain: T2 sequence (P16422 24-265 limits assumed)
notes: It was made in Expi293 cells and purified on Ni-NTA; also called soluble EpEX; secreted EpEX; not shown: His tag
B4: EpEXΔEGFI+II-His (ligand)
chain: QEESKLAAKSERVRTYWIIIELKHKAREKPYDSKSLRTALQKEITTRYQLDPKFITSILYENNVITIDLVQNSSQKTQNDVDIADVAYYFEKDVKGESLFHSKKMDLTVNGEQLDLDPGQTLIYYVDEKAPEFSMQGLK
notes: EpEX lacking aa 27-59 and 66-135; also called EGF like-domain deletion mutant EpEX-His; soluble EpEX mutant protein; not shown: His tag
B5: EpEXΔEGFI+II-Fc (Fc fusion)
chain: B4 chain
notes: EpEX lacking aa 27-59 and 66-135, coated on ELISA plates at 1 µg/ml; also called EpEXΔEGFI+II mutant protein; EGF like-domain deletion mutant-Fc; not shown: Fc
B6: F(ab′)2 of EpAb2-6 (antibody, V domains shown)
VH: VKLQESGPELKKPGETVKISCKASGYTFTDYSMHWVKQAPGKGLKWMGWINTETGEPTYADDFKGRFAFSLETSASTAYLQINNLKNEDTATYFCARTAVYWGQGTTVTVSS
VL: DIQMTQSPSSLSASLGERVSLTCRASQEISVSLSWLQQEPDGTIKRLIYATSTLDSGVPKRFSGSRSGSDYSLTISSLESEDFVDYYCLQYASYPWTFGGGTKLEIKR
notes: F(ab′)2 fragment of mouse EpAb2-6; also called divalent antibody fragments F(ab′)2 of EpAb2-6
B7: EpAb2-6 (mouse monoclonal IgG) (antibody, V domains shown)
VH: B6 VH
VL: B6 VL
notes: Mouse hybridoma IgG; also called mouse EpAb2-6; mEpAb2-6
B8: F(ab′)2 of EpAb2-6: divalent antibody fragments F(ab′)2 of EpAb2-6 (antibody, V domains shown)
VH: B6 VH
VL: DIQMTQSPSSLSASLGERVSLTCRASQEISVSLSWLQQEPDGTIKRLIYATSTLDSGVPKRFSGSRSGSDYSLTISSLESEDFVDYYCLQYASYPWTFGGGTKLEIKRADAAPTVS
B9: endogenous EpCAM (HCT116 and HT29 cells) (other)
chain: T1 sequence
notes: Endogenous protein of human colon cancer cell lines, immunoprecipitated from lysates; also called epithelial cell adhesion molecule
B10: EpCAM-V5 (full length, expressed in HEK293T cells) (other)
chain: T1 sequence
notes: also called exogenous EpCAM; not shown: V5 tag

Columns and labels:
[1] = target: T3, HGFRECD-c-Myc (extracellular domain of HGFR with c-Myc tag, expressed in HEK293T cells) (UniProt P08581 25-932); test: co-IP from transfected HEK293T cells, Western blotting (FIG. 1F)
T3 construct: extracellular domain; also called HGFRECD-c-Myc-tag; not shown: c-Myc tag
T3 sequence (P08581 25-932): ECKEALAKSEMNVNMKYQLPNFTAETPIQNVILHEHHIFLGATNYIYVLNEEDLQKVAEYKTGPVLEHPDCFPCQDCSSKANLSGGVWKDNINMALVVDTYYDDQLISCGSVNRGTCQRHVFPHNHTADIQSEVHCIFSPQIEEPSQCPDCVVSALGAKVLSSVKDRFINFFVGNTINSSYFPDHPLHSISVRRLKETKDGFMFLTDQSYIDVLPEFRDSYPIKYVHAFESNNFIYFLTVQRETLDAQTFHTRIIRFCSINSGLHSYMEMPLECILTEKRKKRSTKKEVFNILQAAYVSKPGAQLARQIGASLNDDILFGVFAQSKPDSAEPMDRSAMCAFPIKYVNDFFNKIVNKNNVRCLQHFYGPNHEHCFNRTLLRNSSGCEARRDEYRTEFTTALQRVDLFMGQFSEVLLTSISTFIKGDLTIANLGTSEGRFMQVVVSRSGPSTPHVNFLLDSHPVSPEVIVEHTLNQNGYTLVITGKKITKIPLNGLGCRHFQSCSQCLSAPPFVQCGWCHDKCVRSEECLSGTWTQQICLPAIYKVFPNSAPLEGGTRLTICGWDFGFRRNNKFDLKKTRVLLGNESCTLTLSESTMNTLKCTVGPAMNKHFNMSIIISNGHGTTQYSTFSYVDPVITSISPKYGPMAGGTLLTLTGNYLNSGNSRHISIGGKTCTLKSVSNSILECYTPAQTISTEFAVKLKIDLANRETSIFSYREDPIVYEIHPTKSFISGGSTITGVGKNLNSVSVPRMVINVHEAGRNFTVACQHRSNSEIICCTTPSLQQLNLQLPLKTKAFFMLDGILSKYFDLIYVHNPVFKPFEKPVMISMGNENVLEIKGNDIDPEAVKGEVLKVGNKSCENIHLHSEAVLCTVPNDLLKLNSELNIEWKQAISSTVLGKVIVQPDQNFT

[2] = target: T4, HGFR-His recombinant protein (human, UniProt P08581 25-932); test: ELISA, HGFR-His (2 µg/ml) on coated EpEX-Fc proteins (1 µg/ml) (FIG. 1H)
T4 construct: extracellular domain; also called HGFRECD-His recombinant protein; not shown: His tag
T4 sequence (P08581 25-932): as above

[3] = target: T3, HGFRECD-c-Myc (extracellular domain of …); test: co-IP from transfected HEK293T cells (restated)
HGFR-Fc protein = target: T5, HGFR-Fc protein (human, UniProt P08581 25-932); test: ELISA, EpEX-His (2 µg/ml) on coated HGFR-Fc (1 µg/ml) (FIG. 6F)
T5 construct: not shown: Fc
T5 sequence (P08581 25-932): as above

[4] = target: T3, HGFRECD-c-Myc (extracellular domain of …); test: co-IP with anti-c-Myc from transfected HEK293T cells, Western blotting (FIG. 1G)
[5] = target: T4, HGFR-His recombinant protein; test: ELISA, HGFR-His added to plates coated with mutant-Fc (1 µg/ml) (FIG. 1H)
[6] = target: B3; test: ELISA on coated EpEX-His (1 µg/ml) (FIG. 7A)
[7] = target: B3; test: ELISA on coated EpEX-His (1 µg/ml) (title of the legend, FIG. 7A)
[8] = target: T1, EpCAM wild-type (expressed in HEK293T …); test: immunofluorescence, flow cytometry and cellular ELISA on transfected HEK293T cells (FIG. 8E-8G)
[9] = target: B10; test: Western blotting, flow cytometry and immunofluorescence on transfected HEK293T cells (title of the legend, FIG. 8A-8C)
EpEX-His = target: T2, EpEX-His; test: ELISA binding to coated EpEX-His; settings: EpEX-His 1 μg/ml coated; ELISA OD450; FIG. 7A
Procedure: FIGS. 7A to 7G. EpAb2-6 binds EpEX and induces apoptosis by F(ab′)2 and inhibits regulated intramembrane proteolysis (RIP) activation and HGFR signaling. (FIG. 7A) Binding affinity of IgG EpAb2-6 (mouse) and F(ab′)2 to EpEX-His (1 μg/ml) coated overnight was checked using ELISA (OD450). (FIG. 7B) HCT116 cells were treated with 100 μg/ml control IgG, Fc, or F(ab′)2 of EpAb2-6 for 24 h. The apoptotic and necrotic cells were quantified by fluorescein annexin V-FITC/PI double labeling. (FIG. 7C) HCT116 and HT29 cells were treated with 10 μg/ml control IgG, MT201, humanized EpAb2-6 (hEpAb2-6) or mouse hybridoma EbAb2-6 (mEpAb2-6) for 24 h. The apoptotic and necrotic cells were quantified by fluorescein annexin V-FITC/PI double labeling. (FIG. 7D) HCT116 cells were treated with 10 μg/ml control IgG, MT201, hEpAb2-6 or mEpAb2-6 for 16 h, followed by treatment with EpEX-His (50 nM) for 15 min. Levels of phosphorylated HGFR, AKT, and ERK, and (FIG. 7E) RIP proteins ADAM17 and presenilin 2 were examined by Western blotting. Anti-EpCAM antibody and crizotinib coordinately induces apoptosis in colon cancer cells. (FIG. 7F) HCT116 and HT29 cells were treated with 10 μg/ml NMIgG or EpAb2-6 and 4 μM HGFR inhibitor crizotinib for 24 h. The apoptotic and necrotic cells were quantified by fluorescein annexin V-FITC/PI double labeling. […] Cell invasion was assessed by a Transwell assay with matrigel after 24 h.

HCT116 cells = test: Apoptosis assay, annexin V-FITC/PI double labeling, HCT116; assay type: cell-based, human; settings: 100 μg/ml 24 h, FIG. 7B
Procedure: FIGS. 7A to 7G. EpAb2-6 binds EpEX and induces apoptosis by F(ab′)2 and inhibits regulated intramembrane proteolysis (RIP) activation and HGFR signaling. (FIG. 7A) Binding affinity of IgG EpAb2-6 (mouse) and F(ab′)2 to EpEX-His (1 μg/ml) coated overnight was checked using ELISA (OD450). (FIG. 7B) HCT116 cells were treated with 100 μg/ml control IgG, Fc, or F(ab′)2 of EpAb2-6 for 24 h. The apoptotic and necrotic cells were quantified by fluorescein annexin V-FITC/PI double labeling. (FIG. 7C) HCT116 and HT29 cells were treated with 10 μg/ml control IgG, MT201, humanized EpAb2-6 (hEpAb2-6) or mouse hybridoma EbAb2-6 (mEpAb2-6) for 24 h. The apoptotic and necrotic cells were quantified by fluorescein annexin V-FITC/PI double labeling. (FIG. 7D) HCT116 cells were treated with 10 μg/ml control IgG, MT201, hEpAb2-6 or mEpAb2-6 for 16 h, followed by treatment with EpEX-His (50 nM) for 15 min. Levels of phosphorylated HGFR, AKT, and ERK, and (FIG. 7E) RIP proteins ADAM17 and presenilin 2 were examined by Western blotting. Anti-EpCAM antibody and crizotinib coordinately induces apoptosis in colon cancer cells. (FIG. 7F) HCT116 and HT29 cells were treated with 10 μg/ml NMIgG or EpAb2-6 and 4 μM HGFR inhibitor crizotinib for 24 h. The apoptotic and necrotic cells were quantified by fluorescein annexin V-FITC/PI double labeling. (FIG. 7G) HCT116 and HT29 cells were treated with 10 μg/ml NMIgG or EpAb2-6 and 10 μM HGFR inhibitor crizotinib. Cell invasion was assessed by a Transwell assay with matrigel after 24 h.
Cells were seeded and treated with 10 μg/ml mAb or inhibitor for 6 h; an unrelated mouse myeloma immunoglobulin used at appropriate dilution served as the IgG2a (Invitrogen #02-6200) isotype control. Apoptotic cells were detected using Annexin V-FITC and PI, and were analyzed using a flow cytometer (BD Immmunocytometry Systems). Early apoptosis was measured with the Annexin V-FITC Apoptosis Detection kit II (BD Pharmingen). Late apoptotic nuclei were detected with propidium iodide (PI) staining.

[10] = target: T6, endogenous HGFR (HCT116 and HT29 cells) (human, UniProt P08581 25-1390); test: co-IP of endogenous proteins after DTSSP cross-linking, HCT116 and HT29 cells (FIG. 1A)
T6 construct: whole, on cells; also called c-MET; hepatocyte growth factor receptor
T6 sequence (P08581 25-1390): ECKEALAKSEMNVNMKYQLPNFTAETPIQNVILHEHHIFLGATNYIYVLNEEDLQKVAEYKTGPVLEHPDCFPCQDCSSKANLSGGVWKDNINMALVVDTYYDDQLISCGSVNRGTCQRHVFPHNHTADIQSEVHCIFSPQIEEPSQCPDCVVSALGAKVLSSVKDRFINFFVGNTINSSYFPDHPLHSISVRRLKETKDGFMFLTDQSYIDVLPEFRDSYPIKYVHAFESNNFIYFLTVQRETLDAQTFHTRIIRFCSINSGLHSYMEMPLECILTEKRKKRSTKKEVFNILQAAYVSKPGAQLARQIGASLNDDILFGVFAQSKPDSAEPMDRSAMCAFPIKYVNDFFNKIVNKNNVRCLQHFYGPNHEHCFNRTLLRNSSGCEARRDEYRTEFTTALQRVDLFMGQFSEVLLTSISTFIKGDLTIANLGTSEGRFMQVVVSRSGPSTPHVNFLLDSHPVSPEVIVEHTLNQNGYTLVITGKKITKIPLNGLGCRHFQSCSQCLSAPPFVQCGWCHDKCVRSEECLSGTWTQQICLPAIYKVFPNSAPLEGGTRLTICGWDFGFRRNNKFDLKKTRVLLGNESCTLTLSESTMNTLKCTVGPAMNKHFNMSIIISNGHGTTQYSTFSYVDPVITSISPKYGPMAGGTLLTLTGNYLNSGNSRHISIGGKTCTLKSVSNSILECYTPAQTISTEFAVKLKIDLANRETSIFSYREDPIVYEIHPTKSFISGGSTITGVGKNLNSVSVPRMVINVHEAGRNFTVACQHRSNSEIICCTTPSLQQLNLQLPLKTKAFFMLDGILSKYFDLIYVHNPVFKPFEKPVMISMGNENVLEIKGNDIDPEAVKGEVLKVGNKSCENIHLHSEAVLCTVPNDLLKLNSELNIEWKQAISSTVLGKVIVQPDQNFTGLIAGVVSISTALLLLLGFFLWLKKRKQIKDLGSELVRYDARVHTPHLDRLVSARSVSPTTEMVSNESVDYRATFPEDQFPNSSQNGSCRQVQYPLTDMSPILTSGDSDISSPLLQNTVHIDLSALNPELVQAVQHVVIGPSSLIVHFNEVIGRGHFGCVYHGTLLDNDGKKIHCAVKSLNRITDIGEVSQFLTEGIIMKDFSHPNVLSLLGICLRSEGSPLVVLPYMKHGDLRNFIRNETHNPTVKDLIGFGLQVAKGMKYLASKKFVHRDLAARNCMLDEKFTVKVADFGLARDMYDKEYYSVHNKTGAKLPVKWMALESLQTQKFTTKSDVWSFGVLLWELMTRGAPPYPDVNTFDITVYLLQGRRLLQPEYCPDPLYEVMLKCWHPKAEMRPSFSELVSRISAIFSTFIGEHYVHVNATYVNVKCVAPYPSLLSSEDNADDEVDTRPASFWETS

[11] = target: T3, HGFRECD-c-Myc (extracellular domain of …); test: co-IP from HEK293T cells overexpressing EpCAM-V5 and HGFRECD-c-Myc (FIG. 1B)

Molecule: B1
binding result [1]: no binding

Molecule: B2
binding result [2]: binds

Molecule: B3
binding result [3]: binds
binding result (HGFR-Fc protein): binds

Molecule: B4
binding result [4]: no binding

Molecule: B5
binding result [5]: no binding (tested: 2 µg/ml)

Molecule: B6
binding result [6]: binds

Molecule: B7
binding result [7]: binds
binding result [8]: binds
binding result [9]: binds

Molecule: B8
binding to EpEX (EpEX-His): bind to EpEX
apoptosis (HCT116 cells): induce apoptosis in colon cancer cells

Molecule: B9
binding result [10]: binds

Molecule: B10
binding result [11]: binds
